First the molecules themselves.
B1: Azoarcus group I ribozyme (parent)
chain: GUGCCUUGCGCCGGGAAACCACGCAAGGGAUGGUGUCAAAUUCGGCGAAACCUAAGCGCCCGCCCGGGCGUAUGGCAACGCCGAGCCAAGCUUCGGCGCCUGCGCCGAUGAAGGUGUAGAGACUAGACGGCACCCACCUAAGGCAAACGCUAUGGUGAAGGCAUAGUCCAGGGAGUGGCGAAAGUCACACAAACCGG

In this data set the parent is B1. In words: reverse-splicing fitness (ratio to wild type); higher = more active; in vitro selection; Mg2+ level not given. Put shortly: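 An in vitro group I ribozyme library with randomized positions was T7-transcribed and gel-purified. In triplicate, 10 pmol RNA in EPPS pH 7.5 was reacted with 50 pmoles of a 30-nt RNA substrate for 1 h at 37 °C across several added MgCl2 levels (1–48 mM), then stopped with EDTA. Products were reverse transcribed from a substrate-complementary primer, PCR-amplified and sequenced (HiSeq 4000). Fitness is a variant's read proportion after selection over that before, normalised to wild type.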
On to GUGCCUUGCGCCGGGAAACCACGCAAGGGAUGGUGUCAAAUUCGGCGAAACCUAAGCGCCCGCCCGGGCGUAUGGCAACGCCGAGCCAAGCUUCGGCGCCUGCGCCGAUGAAGGUGUAGCGACUAGACGGCACCCACCUAAGGCUAACGGUAUGGUGAAGGCAUAGUCGAGGGAGGGGCGAAAGUCACACAAACCGG [A120C A145U C150G C169G U176G], for which the reverse-splicing fitness stood at 0.00367. Regarding GUGCCUUGCGCCGGGAAACCACGCAAGGGAUGGUGUCAAAUUCGGCGAAACCUAAGCGCCCGCCCGGGCGUAUGGCAACGCCGAGCCAAGCUUCGGCGCCUGCGCCGAUGAAGGUGUAGCGACUAGACGGCACCCACCUAAGGCUAACGGUAUGGUGAAGGCAUAGUCGAGGGAGCGGCGAAAGUCACACAAACCGG [A120C A145U C150G C169G U176C], the reverse-splicing fitness turned out to be 0.00537.

For GUGCCUUGCGCCGGGAAACCACGCAAGGGAUGGUGUCAAAUUCGGCGAAACCUAAGCGCCCGCCCGGGCGUAUGGCAACGCCGAGCCAAGCUUCGGCGCCUGCGCCGAUGAAGGUGUAGCGACUAGACGGCACCCACCUAAGGCUAACGGUAUGGUGAAGGCAUAGUCGAGGGAGAGGCGAAAGUCACACAAACCGG [A120C A145U C150G C169G U176A], the reverse-splicing fitness was 0.00633. Take GUGCCUUGCGCCGGGAAACCACGCAAGGGAUGGUGUCAAAUUCGGCGAAACCUAAGCGCCCGCCCGGGCGUAUGGCAACGCCGAGCCAAGCUUCGGCGCCUGCGCCGAUGAAGGUGUAGCGACUAGACGGCACCCACCUAAGGCUAACGGUAUGGUGAAGGCAUAGUCUAGGGAGCGGCGAAAGUCACACAAACCGG [A120C A145U C150G C169U U176C]: the reverse-splicing fitness amounted to 0.0535.

Consider GUGCCUUGCGCCGGGAAACCACGCAAGGGAUGGUGUCAAAUUCGGCGAAACCUAAGCGCCCGCCCGGGCGUAUGGCAACGCCGAGCCAAGCUUCGGCGCCUGCGCCGAUGAAGGUGUAGCGACUAGACGGCACCCACCUAAGGCUAACGGUAUGGUGAAGGCAUAGUCUAGGGAGAGGCGAAAGUCACACAAACCGG [A120C A145U C150G C169U U176A], for which the reverse-splicing fitness came to 0.0184. Turning to GUGCCUUGCGCCGGGAAACCACGCAAGGGAUGGUGUCAAAUUCGGCGAAACCUAAGCGCCCGCCCGGGCGUAUGGCAACGCCGAGCCAAGCUUCGGCGCCUGCGCCGAUGAAGGUGUAGCGACUAGACGGCACCCACCUAAGGCUAACGGUAUGGUGAAGGCAUAGUCUAGGGAGGGGCGAAAGUCACACAAACCGG [A120C A145U C150G C169U U176G], the reverse-splicing fitness was 0.00515. Under GUGCCUUGCGCCGGGAAACCACGCAAGGGAUGGUGUCAAAUUCGGCGAAACCUAAGCGCCCGCCCGGGCGUAUGGCAACGCCGAGCCAAGCUUCGGCGCCUGCGCCGAUGAAGGUGUAGCGACUAGACGGCACCCACCUAAGGCUAACGUUAUGGUGAAGGCAUAGUCAAGGGAGGGGCGAAAGUCACACAAACCGG [A120C A145U C150U C169A U176G] stands 0.00474.

For GUGCCUUGCGCCGGGAAACCACGCAAGGGAUGGUGUCAAAUUCGGCGAAACCUAAGCGCCCGCCCGGGCGUAUGGCAACGCCGAGCCAAGCUUCGGCGCCUGCGCCGAUGAAGGUGUAGCGACUAGACGGCACCCACCUAAGGCUAACGUUAUGGUGAAGGCAUAGUCAAGGGAGCGGCGAAAGUCACACAAACCGG [A120C A145U C150U C169A U176C], the reverse-splicing fitness worked out at 0.0111. Under GUGCCUUGCGCCGGGAAACCACGCAAGGGAUGGUGUCAAAUUCGGCGAAACCUAAGCGCCCGCCCGGGCGUAUGGCAACGCCGAGCCAAGCUUCGGCGCCUGCGCCGAUGAAGGUGUAGCGACUAGACGGCACCCACCUAAGGCUAACGUUAUGGUGAAGGCAUAGUCAAGGGAGAGGCGAAAGUCACACAAACCGG [A120C A145U C150U C169A U176A] stands 0.0137; under GUGCCUUGCGCCGGGAAACCACGCAAGGGAUGGUGUCAAAUUCGGCGAAACCUAAGCGCCCGCCCGGGCGUAUGGCAACGCCGAGCCAAGCUUCGGCGCCUGCGCCGAUGAAGGUGUAGCGACUAGACGGCACCCACCUAAGGCUAACGGUAUGGUGAAGGCAUAGUCAAGGGAGGGGCGAAAGUCACACAAACCGG [A120C A145U C150G C169A U176G], 0.0044; under GUGCCUUGCGCCGGGAAACCACGCAAGGGAUGGUGUCAAAUUCGGCGAAACCUAAGCGCCCGCCCGGGCGUAUGGCAACGCCGAGCCAAGCUUCGGCGCCUGCGCCGAUGAAGGUGUAGCGACUAGACGGCACCCACCUAAGGCUAACGGUAUGGUGAAGGCAUAGUCAAGGGAGAGGCGAAAGUCACACAAACCGG [A120C A145U C150G C169A U176A], 0.0113. Under GUGCCUUGCGCCGGGAAACCACGCAAGGGAUGGUGUCAAAUUCGGCGAAACCUAAGCGCCCGCCCGGGCGUAUGGCAACGCCGAGCCAAGCUUCGGCGCCUGCGCCGAUGAAGGUGUAGCGACUAGACGGCACCCACCUAAGGCUAACGGUAUGGUGAAGGCAUAGUCAAGGGAGCGGCGAAAGUCACACAAACCGG [A120C A145U C150G C169A U176C] stands 0.00821; under GUGCCUUGCGCCGGGAAACCACGCAAGGGAUGGUGUCAAAUUCGGCGAAACCUAAGCGCCCGCCCGGGCGUAUGGCAACGCCGAGCCAAGCUUCGGCGCCUGCGCCGAUGAAGGUGUAGCGACUAGACGGCACCCACCUAAGGCUAACGGUAUGGUGAAGGCAUAGUCGAGGGAGUGGCGAAAGUCACACAAACCGG [A120C A145U C150G C169G], 0.00781; under GUGCCUUGCGCCGGGAAACCACGCAAGGGAUGGUGUCAAAUUCGGCGAAACCUAAGCGCCCGCCCGGGCGUAUGGCAACGCCGAGCCAAGCUUCGGCGCCUGCGCCGAUGAAGGUGUAGCGACUAGACGGCACCCACCUAAGGCUAACGGUAUGGUGAAGGCAUAGUCAAGGGAGUGGCGAAAGUCACACAAACCGG [A120C A145U C150G C169A], 0.00905. GUGCCUUGCGCCGGGAAACCACGCAAGGGAUGGUGUCAAAUUCGGCGAAACCUAAGCGCCCGCCCGGGCGUAUGGCAACGCCGAGCCAAGCUUCGGCGCCUGCGCCGAUGAAGGUGUAGCGACUAGACGGCACCCACCUAAGGCUAACGGUAUGGUGAAGGCAUAGUCUAGGGAGUGGCGAAAGUCACACAAACCGG [A120C A145U C150G C169U]: the reverse-splicing fitness was determined as 0.107.

The values are drawn from the RNAGym collection of RNA variant scans (doi:10.1093/molbev/msab373).
